Assay results published in article PMC7380489.

Target: human TRIM28 N-terminal RBCC domain (human)
Assay: SEC-MALS + other: SEC-SAXS + AUC

stoichiometry N: 3
Substance: human TRIM28 N-terminal RBCC domain (domain or fragment)
